Measured values published in publication PMC5467213, “Architecture of the RNA polymerase II-Paf1C-TFIIS transcription elongation complex” (Nature Communications, 2017).

B1: Leo1 (natural protein, S. cerevisiae, UniProt P38439 1-464, looked up)
chain: MSSESPQDQPQKEQISNNVGVTTNSTSNEETSRSQDDNVKEVNGNDDTKEEEQEEDAELDDLFGDDNDDDDDDDVKKSETEKSDSDSDEDDEGENINHRSRHRESLGLDDDEAEEQAMYTRKFYGEDANNFSDQDETTHTFKEENVELVRHIIPSKANVNETASHNEIFYARIPNFLTIDPIPFDPPSFEAKVNERASNSASREDQLDDRLIDENTVRWRYSRDKDQHVFKESNTQIVQWSDGTYSLKVGEECTDILVNDTSNTFLTVSHDQQELIQCYEGGEIKKTLMFIPTSTNSKIHQKLSKAVIRRNQRQSKGPGTYIVSMDPEVEKKELERKQSQILRDRRRRQLKEKEKQESPDAAFETGFRKQNSPTTYGASRRNEYEEDDFLVDDDEEEEAAFDDEEDDNEEEEEEEDADEENASRLRNLKREGAAMYREEEEEEKDRSETKRRRVAVIEDDEDED
notes: Leo1, S. cerevisiae, open reading frame chemically synthesized (codon-optimised), in pCDFDuet-1; source: E. coli BL21 CodonPlus(DE3)RIL, coexpressed with the other subunits; in lysate and purified as part of Paf1C
B2: Rpb3 (Pol II subunit) (natural protein, yeast)
chain: MSEEGPQVKIREASKDNVDFILSNVDLAMANSLRRVMIAEIPTLAIDSVEVETNTTVLADEFIAHRLGLIPLQSMDIEQLEYSRDCFCEDHCDKCSVVLTLQAFGESESTTNVYSKDLVIVSNLMGRNIGHPIIQDKEGNGVLICKLRKGQELKLTCVAKKGIAKEHAKWGPAAAIEFEYDPWNKLKHTDYWYEQDSAKEWPQSKNCEYEDPPNEGDPFDYKAQADTFYMNVESVGSIPVDQVVVRGIDTLQKKVASILLALTQMDQDKVNFASGDNNTASNMLGSNEDVMMTGAEQDPYSNASQMGNTGSGGYDNAW
notes: Rpb3, subunit of yeast Pol II; source: part of purified Pol II
B3: Rpb11 (Pol II subunit) (natural protein, yeast)
chain: MNAPDRFELFLLGEGESKLKIDPDTKAPNAVVITFEKEDHTLGNLIRAELLNDRKVLFAAYKVEHPFFARFKLRIQTTEGYDPKDALKNACNSIINKLGALKTNFETEWNLQTLAADDAF
notes: Rpb11, subunit of yeast Pol II; source: part of purified Pol II
B4: Cdc73 (natural protein, S. cerevisiae, UniProt Q06697 1-393, looked up)
chain: MANSLDRLREHLKNGDKLVLKNNEGQSTDDITKATMVETLSSDGSTQDSFPLNEETEIEIDGSLVQLRIIVHCWMNKDSSAADYLADCQNKQLTNVSFLQRTDLINWLSGNTESSQYLKAPGQKGETSDKVDIENKTLAGELSTVKSTTSASLENDSEVSDPVVVETMKHERILVDHNSALRGAKPINFGYLIKDAELKLVQSIKGSLRGSKLPPGHKGAHGRISKTNGSSGGPRKDPIILIPSAASSILTVANIKQFLLESKYVNPRNLPSVPNGLVNIEKNFERISRPIRFIIVDNTRMFTKPEYWDRVVAIFTTGHTWQFNNYQWNSPQELFQRCKGYYFHFAGDSVPQHVQQWNVEKVELDKNKRFKDVEVVRYFWHSLEKELISRGYR
notes: Cdc73, S. cerevisiae, full length, amplified from genomic DNA; source: E. coli BL21 CodonPlus(DE3)RIL, coexpressed with the other subunits; in lysate and purified as part of Paf1C

Assays:
[1] = molecular target: T1, Ctr9 (full length, C-terminal hexahistidine tag) (S. cerevisiae, UniProt P89105 1-1077); test: co-purification after coexpression (Ni-NTA, cation exchange, SEC); subunits coexpressed in E. coli from three vectors, cells colysed; Ni-NTA (hexahistidine tag on Ctr9), HiTrap SP cation exchange, Superose 6 size exclusion; SDS-PAGE, subunits confirmed by mass spectrometry; conditions: partners not purified
T1 construct: Ctr9, S. cerevisiae, full length, amplified from genomic DNA, in pET24b; source: E. coli BL21 CodonPlus(DE3)RIL, coexpressed with the other subunits; in lysate and purified as part of Paf1C; not shown: His6, C-terminal, kept
T1 sequence (looked up): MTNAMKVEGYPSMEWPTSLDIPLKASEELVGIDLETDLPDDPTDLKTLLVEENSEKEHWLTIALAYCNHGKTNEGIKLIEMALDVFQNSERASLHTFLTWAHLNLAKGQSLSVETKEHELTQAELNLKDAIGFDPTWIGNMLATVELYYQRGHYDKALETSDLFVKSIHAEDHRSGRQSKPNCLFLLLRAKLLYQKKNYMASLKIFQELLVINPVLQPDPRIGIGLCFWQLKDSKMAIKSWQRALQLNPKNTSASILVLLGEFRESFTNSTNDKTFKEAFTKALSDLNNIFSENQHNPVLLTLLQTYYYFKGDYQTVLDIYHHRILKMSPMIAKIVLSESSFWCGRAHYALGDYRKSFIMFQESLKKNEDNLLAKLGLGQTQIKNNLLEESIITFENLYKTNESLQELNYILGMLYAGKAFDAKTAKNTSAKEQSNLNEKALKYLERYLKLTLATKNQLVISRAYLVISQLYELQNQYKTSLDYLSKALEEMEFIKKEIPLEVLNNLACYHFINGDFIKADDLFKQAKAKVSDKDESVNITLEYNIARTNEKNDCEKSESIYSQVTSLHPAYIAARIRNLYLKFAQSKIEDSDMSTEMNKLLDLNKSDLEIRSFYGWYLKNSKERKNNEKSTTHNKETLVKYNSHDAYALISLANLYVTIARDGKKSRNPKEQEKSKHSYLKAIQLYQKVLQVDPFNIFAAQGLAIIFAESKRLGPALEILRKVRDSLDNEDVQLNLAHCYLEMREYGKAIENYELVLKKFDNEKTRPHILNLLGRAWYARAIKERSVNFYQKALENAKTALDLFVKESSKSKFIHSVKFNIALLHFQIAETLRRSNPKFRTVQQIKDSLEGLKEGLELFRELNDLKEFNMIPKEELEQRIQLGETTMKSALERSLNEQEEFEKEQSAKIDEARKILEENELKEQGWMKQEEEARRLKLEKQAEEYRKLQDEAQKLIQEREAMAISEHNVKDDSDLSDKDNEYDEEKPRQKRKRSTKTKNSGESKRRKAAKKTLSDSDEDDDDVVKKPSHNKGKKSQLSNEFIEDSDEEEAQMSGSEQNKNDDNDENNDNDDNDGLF

Ctr9-ΔC913 = molecular target: T2, Ctr9-ΔC913 (S. cerevisiae, UniProt P89105 1-913); test: cross-linking; Pol II-Paf1C-TFIIS EC after SEC, 425 μg/ml, 0.5 mM BS3, 30 min, 30 °C; trypsin, Orbitrap Fusion LC-MS/MS, pLink, FDR 1%; conditions: both partners purified
T2 construct: Ctr9, S. cerevisiae, variant lacking 164 amino acids at its C terminus (Ctr9-ΔC913); also called Ctr9 (in the Pol II-Paf1C-TFIIS EC); source: E. coli BL21 CodonPlus(DE3)RIL, coexpressed with the other subunits; in lysate and purified as part of Paf1C-Ctr9-ΔC913
T2 sequence (looked up): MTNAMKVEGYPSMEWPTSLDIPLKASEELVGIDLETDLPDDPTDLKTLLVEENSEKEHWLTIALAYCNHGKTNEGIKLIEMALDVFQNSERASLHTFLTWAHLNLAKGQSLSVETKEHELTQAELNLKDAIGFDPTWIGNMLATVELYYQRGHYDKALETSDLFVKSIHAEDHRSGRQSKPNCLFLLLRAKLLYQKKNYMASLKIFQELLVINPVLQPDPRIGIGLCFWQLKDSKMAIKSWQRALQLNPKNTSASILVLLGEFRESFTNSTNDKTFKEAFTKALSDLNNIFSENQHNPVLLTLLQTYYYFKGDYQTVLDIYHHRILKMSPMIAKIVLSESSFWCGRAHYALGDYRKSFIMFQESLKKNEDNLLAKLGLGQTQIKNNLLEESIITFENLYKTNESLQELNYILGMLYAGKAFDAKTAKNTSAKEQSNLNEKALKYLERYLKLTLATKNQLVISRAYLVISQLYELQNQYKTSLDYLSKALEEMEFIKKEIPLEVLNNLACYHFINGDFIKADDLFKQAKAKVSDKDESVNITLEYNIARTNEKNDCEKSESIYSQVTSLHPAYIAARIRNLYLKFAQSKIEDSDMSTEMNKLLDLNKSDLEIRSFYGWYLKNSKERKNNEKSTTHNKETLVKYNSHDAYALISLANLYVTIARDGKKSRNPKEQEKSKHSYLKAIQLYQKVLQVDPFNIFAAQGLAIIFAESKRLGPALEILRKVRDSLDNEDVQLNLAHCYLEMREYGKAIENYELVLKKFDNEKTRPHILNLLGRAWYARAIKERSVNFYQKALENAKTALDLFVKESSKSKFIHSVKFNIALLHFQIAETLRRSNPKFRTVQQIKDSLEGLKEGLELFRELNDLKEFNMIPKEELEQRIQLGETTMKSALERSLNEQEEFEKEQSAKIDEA

Rpb2 (Pol II subunit) = molecular target: T3, Rpb2 (Pol II subunit) (yeast, UniProt P08518 1-1224); test: as above; conditions: both partners purified
T3 construct: Rpb2, subunit of yeast Pol II; source: part of purified Pol II

Rpb1 (Pol II subunit) = molecular target: T4, Rpb1 (Pol II subunit) (yeast, UniProt P04050 1-1733); test: as above; conditions: both partners purified
T4 construct: Rpb1, largest subunit of yeast Pol II; source: part of purified Pol II

Rtf1 = molecular target: T5, Rtf1 (S. cerevisiae, UniProt P53064 1-558); test: as above; conditions: both partners purified
T5 construct: Rtf1, S. cerevisiae, full length, amplified from genomic DNA; source: E. coli BL21 CodonPlus(DE3)RIL, coexpressed with Cdc73; in lysate and purified as part of Paf1C

Cdc73 = molecular target: B4; test: as above; conditions: both partners purified

T3 sequence (P08518 whole entry): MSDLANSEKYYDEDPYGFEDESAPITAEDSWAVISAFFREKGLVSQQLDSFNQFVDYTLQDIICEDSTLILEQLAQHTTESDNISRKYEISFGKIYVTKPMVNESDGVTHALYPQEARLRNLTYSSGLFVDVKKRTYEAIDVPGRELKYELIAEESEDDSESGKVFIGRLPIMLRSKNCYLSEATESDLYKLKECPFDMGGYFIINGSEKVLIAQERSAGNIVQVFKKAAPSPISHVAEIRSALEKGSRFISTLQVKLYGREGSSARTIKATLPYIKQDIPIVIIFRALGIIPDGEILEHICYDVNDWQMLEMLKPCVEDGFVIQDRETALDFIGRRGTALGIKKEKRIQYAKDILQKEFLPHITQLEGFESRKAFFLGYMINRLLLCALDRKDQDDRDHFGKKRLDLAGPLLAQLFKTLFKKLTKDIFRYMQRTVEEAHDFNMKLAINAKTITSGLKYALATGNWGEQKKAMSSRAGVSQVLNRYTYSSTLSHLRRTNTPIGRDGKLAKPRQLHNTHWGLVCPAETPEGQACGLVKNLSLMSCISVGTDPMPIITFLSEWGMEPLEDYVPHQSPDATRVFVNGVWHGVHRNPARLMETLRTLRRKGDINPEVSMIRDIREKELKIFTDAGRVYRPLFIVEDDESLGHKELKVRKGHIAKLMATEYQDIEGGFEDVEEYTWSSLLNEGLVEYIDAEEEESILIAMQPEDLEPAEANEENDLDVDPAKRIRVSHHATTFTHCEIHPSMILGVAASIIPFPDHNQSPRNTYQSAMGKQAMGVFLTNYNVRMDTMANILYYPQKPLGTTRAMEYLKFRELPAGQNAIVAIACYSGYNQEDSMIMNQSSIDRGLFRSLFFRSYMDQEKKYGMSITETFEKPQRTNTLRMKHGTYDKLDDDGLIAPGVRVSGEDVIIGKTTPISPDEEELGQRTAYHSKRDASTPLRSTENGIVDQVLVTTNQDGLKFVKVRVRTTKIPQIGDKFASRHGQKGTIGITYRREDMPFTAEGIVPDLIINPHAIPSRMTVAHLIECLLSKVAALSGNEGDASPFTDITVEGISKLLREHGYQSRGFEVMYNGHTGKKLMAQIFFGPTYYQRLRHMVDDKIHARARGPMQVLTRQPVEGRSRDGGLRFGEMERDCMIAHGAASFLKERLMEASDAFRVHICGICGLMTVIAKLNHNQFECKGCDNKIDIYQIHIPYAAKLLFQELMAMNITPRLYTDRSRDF
T5 sequence (P53064 whole entry): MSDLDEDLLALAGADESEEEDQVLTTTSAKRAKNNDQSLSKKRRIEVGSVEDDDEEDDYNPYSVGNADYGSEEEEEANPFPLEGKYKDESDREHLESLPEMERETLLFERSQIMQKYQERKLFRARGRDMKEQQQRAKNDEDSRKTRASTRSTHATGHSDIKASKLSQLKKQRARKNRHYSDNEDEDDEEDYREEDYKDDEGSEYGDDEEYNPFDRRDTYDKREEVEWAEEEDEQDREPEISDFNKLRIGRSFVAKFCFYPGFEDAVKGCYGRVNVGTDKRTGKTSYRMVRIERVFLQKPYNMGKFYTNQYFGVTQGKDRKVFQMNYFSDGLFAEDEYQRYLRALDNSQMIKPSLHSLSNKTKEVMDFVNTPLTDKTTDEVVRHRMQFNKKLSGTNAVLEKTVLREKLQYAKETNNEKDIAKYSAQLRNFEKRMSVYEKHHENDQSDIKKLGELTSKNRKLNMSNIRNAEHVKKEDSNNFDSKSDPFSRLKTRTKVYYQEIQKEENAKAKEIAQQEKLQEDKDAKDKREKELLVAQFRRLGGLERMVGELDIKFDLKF
T4 sequence (P04050 whole entry): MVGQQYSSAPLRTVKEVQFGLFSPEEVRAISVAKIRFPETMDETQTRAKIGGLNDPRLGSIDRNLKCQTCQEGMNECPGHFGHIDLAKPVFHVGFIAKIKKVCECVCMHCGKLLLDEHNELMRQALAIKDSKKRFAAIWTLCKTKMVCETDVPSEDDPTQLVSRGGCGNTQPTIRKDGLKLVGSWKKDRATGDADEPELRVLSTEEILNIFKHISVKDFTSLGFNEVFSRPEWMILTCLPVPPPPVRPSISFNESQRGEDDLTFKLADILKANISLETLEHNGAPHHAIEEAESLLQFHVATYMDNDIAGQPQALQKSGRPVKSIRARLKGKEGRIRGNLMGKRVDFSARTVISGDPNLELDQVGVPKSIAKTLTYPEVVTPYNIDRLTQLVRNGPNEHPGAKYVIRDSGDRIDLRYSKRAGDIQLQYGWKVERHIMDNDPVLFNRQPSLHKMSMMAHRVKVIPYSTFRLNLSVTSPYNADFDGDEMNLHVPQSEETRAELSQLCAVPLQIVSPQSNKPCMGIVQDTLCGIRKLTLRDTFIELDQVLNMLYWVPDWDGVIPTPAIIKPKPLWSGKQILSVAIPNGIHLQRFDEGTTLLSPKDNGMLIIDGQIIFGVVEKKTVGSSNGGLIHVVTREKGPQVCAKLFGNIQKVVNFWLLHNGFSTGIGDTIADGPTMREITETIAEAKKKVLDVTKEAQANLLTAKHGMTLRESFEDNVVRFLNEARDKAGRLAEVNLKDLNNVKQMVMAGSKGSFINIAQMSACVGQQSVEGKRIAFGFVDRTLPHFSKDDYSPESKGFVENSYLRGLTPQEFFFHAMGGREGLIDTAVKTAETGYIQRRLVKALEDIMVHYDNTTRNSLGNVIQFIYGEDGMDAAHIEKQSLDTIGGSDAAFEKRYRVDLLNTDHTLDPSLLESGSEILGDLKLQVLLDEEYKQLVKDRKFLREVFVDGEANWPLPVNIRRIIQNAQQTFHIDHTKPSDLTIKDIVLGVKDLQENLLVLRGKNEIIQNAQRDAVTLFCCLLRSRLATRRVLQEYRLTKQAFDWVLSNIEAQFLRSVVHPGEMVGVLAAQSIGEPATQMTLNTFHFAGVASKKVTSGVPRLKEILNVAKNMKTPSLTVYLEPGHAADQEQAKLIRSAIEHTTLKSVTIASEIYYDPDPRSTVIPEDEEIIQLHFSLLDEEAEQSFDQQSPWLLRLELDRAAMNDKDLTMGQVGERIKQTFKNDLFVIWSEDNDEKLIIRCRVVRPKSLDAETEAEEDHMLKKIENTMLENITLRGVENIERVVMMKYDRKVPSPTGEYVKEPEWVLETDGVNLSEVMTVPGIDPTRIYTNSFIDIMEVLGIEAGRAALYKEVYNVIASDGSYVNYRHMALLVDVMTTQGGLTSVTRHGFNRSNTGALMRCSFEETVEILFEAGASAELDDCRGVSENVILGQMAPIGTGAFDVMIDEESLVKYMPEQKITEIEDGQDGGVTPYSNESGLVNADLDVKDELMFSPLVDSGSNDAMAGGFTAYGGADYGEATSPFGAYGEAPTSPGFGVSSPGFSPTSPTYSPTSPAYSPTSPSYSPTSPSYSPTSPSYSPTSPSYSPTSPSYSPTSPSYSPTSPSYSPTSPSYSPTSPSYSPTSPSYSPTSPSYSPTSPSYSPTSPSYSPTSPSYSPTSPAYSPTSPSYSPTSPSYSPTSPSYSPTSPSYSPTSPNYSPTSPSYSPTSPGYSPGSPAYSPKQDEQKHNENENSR

Row | Binder | binding result [1] | binding result (Ctr9-ΔC913) | binding result (Rpb2 (Pol II subunit)) | binding result (Rpb1 (Pol II subunit)) | binding result (Rtf1) | binding result (Cdc73)
1 | B1 | binds | binds | binds | binds | binds | –
2 | B2 | – | – | – | – | – | binds
3 | B3 | – | – | – | – | – | binds
4 | B4 | binds | binds | binds | – | – | –
